Our source for the reverse-splicing fitness values is the RNAGym collection of RNA variant scans (doi:10.1093/molbev/msab373).

To fix the notation:
B1: Azoarcus group I ribozyme (parent)
chain: GUGCCUUGCGCCGGGAAACCACGCAAGGGAUGGUGUCAAAUUCGGCGAAACCUAAGCGCCCGCCCGGGCGUAUGGCAACGCCGAGCCAAGCUUCGGCGCCUGCGCCGAUGAAGGUGUAGAGACUAGACGGCACCCACCUAAGGCAAACGCUAUGGUGAAGGCAUAGUCCAGGGAGUGGCGAAAGUCACACAAACCGG

The variants in this series derive from B1. Nature of the series: reverse-splicing fitness (ratio to wild type); higher = more active; in vitro selection; Mg2+ level not given. Summed up: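 An in vitro group I ribozyme library with randomized positions was T7-transcribed and gel-purified. In triplicate, 10 pmol RNA in EPPS pH 7.5 was reacted with 50 pmoles of a 30-nt RNA substrate for 1 h at 37 °C across several added MgCl2 levels (1–48 mM), then stopped with EDTA. Products were reverse transcribed from a substrate-complementary primer, PCR-amplified and sequenced (HiSeq 4000). Fitness is a variant's read proportion after selection over that before, normalised to wild type.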
With A120C C150U C169A U176C, the reverse-splicing fitness came out at 0.017.
As for A120C A145G C150G C169G, the reverse-splicing fitness was 0.00987.
As for A120C A145G C150G C169U, the reverse-splicing fitness stood at 0.108.
As to A120C A145G C150G C169A, the reverse-splicing fitness was found to be 0.0119.
For the variant A120C A145G C169G U176G, the reverse-splicing fitness stood at 0.00382.
In the case of A120C A145G C169G U176C, the reverse-splicing fitness came out at 0.022.
Turning to A120C A145G C169G U176A, the reverse-splicing fitness amounted to 0.0155.
For the variant A120C A145G C150U C169U U176C, the reverse-splicing fitness stood at 0.186.
Consider A120C A145G C150U C169U U176G, for which the reverse-splicing fitness came out at 0.0092.
The result for A120C A145G C150U C169U U176A reads 0.125; that for A120C C150U C169G U176C, 0.0142; that for A120C C150U C169G U176A, 0.0153.
For the variant A120C C150U C169G U176G, the reverse-splicing fitness was 0.00427.
The result for A120C C169A U176A reads 0.0173.
Consider A120C A145G C150G U176G, for which the reverse-splicing fitness was 0.019.
A120C A145G C150G U176A: the reverse-splicing fitness came to 0.0905.
The result for A120C A145G C150G U176C reads 0.146.
As to A120C A145U C150A C169G U176G, the reverse-splicing fitness was found to be 0.00376.
For A120C A145U C150A C169G U176C, the reverse-splicing fitness amounted to 0.0105.
Consider A120C A145U C150A C169G U176A, for which the reverse-splicing fitness came out at 0.00974.
Consider A120C A145U C150U C169U U176A, for which the reverse-splicing fitness was 0.131.
Take A120C A145U C150U C169U U176G: the reverse-splicing fitness turned out to be 0.0113.
Consider A120C A145U C150U C169U U176C, for which the reverse-splicing fitness was found to be 0.16.
On to A120C A145G C169U U176A, for which the reverse-splicing fitness was 0.153.
As to A120C A145G C169U U176C, the reverse-splicing fitness was 0.185.
Under A120C A145G C169U U176G stands 0.015.
Regarding A120C A145U U176A, the reverse-splicing fitness was found to be 0.726.
In the case of A120C A145U U176C, the reverse-splicing fitness was 0.7.
The result for A120C A145U U176G reads 0.318; that for A120C C150U U176A, 0.643; that for A120C C150U U176C, 0.596.
The result for A120C C150U U176G reads 0.181; that for A120C A145U C150G, 0.262; that for A120C A145U C150U, 0.744.
Under A120C A145U C150A stands 0.215; under A120C C150U C169G, 0.0172.
On to A120C C150U C169A, for which the reverse-splicing fitness amounted to 0.0269.
Under A120C C150U C169U stands 0.345.
As to A120C A145U C169A U176G, the reverse-splicing fitness amounted to 0.00466.
For the variant A120C A145U C169A U176A, the reverse-splicing fitness came out at 0.01.
With A120C A145U C169A U176C, the reverse-splicing fitness worked out at 0.0127.
Take A120C A145U C169G U176C: the reverse-splicing fitness was 0.0112.
Consider A120C A145U C169G U176G, for which the reverse-splicing fitness turned out to be 0.0038.
With A120C A145U C169G U176A, the reverse-splicing fitness was found to be 0.00826.
On to A120C C150A C169U U176G, for which the reverse-splicing fitness turned out to be 0.00663.
Regarding A120C C150A C169U U176C, the reverse-splicing fitness was determined as 0.0627.
Consider A120C C150A C169U U176A, for which the reverse-splicing fitness came to 0.0533.
As for A120C A145G C150A C169U U176A, the reverse-splicing fitness is 0.0678.
For the variant A120C A145G C150A C169U U176G, the reverse-splicing fitness came out at 0.00697.
In the case of A120C A145G C150A C169U U176C, the reverse-splicing fitness was found to be 0.0824.
For the variant A120C A145G C169A U176G, the reverse-splicing fitness was determined as 0.00471.
A120C A145G C169A U176C: the reverse-splicing fitness was 0.024.
The result for A120C A145G C169A U176A reads 0.0215.
Turning to A120C A145G C150U C169A U176C, the reverse-splicing fitness is 0.0196.
Take A120C A145G C150U C169A U176G: the reverse-splicing fitness was 0.00444.
For A120C A145G C150U C169A U176A, the reverse-splicing fitness was found to be 0.0167.
Under A120C A145G C150U U176G stands 0.179.
Regarding A120C A145G C150U U176C, the reverse-splicing fitness was 0.566.
In the case of A120C A145G C150U U176A, the reverse-splicing fitness was 0.626.
As for A120C C169A, the reverse-splicing fitness was 0.0364.
For A120C A145U C150G C169U U176G, the reverse-splicing fitness came out at 0.00515.
Turning to A120C A145U C150G C169U U176C, the reverse-splicing fitness amounted to 0.0535.
In the case of A120C A145U C150G C169U U176A, the reverse-splicing fitness was found to be 0.0184.
Consider A120C A145U C150U C169G U176G, for which the reverse-splicing fitness is 0.00463.
Take A120C A145U C150U C169G U176A: the reverse-splicing fitness was 0.0111.
On to A120C A145U C150U C169G U176C, for which the reverse-splicing fitness amounted to 0.0117.
For A120C C150A C169A U176G, the reverse-splicing fitness is 0.00451.
Under A120C C150A C169A U176C stands 0.011; under A120C C150A C169A U176A, 0.0193; under A120C C150U C169U U176A, 0.118.
With A120C C150U C169U U176C, the reverse-splicing fitness is 0.143.
In the case of A120C C150U C169U U176G, the reverse-splicing fitness was found to be 0.0106.
Under A120C C150A C169A stands 0.0141.
Under A120C C150A C169U stands 0.098; under A120C C150A C169G, 0.00864.
In the case of A120C A145G C150G C169U U176C, the reverse-splicing fitness worked out at 0.0406.
On to A120C A145G C150G C169U U176A, for which the reverse-splicing fitness came out at 0.0149.
As for A120C A145G C150G C169U U176G, the reverse-splicing fitness is 0.00611.
On to A120C A145U C150G U176G, for which the reverse-splicing fitness was found to be 0.0206.
Under A120C A145U C150G U176C stands 0.156.
On to A120C A145U C150G U176A, for which the reverse-splicing fitness came to 0.137.
Under A120C A145G C150G C169G U176G stands 0.00533; under A120C A145G C150G C169G U176A, 0.00996.
For the variant A120C A145G C150G C169G U176C, the reverse-splicing fitness is 0.0135.
